Test [1] addresses T1, polymorphic epithelial mucin (PEM) (UniProt P15941 24-1097, limits assumed).
T1 construct: Control antigen in the specificity enzyme activity test
In words: specificity enzyme activity test: antigen-coated plate, bound fusion protein detected by its β-glucuronidase activity on 4-methylumbelliferyl β-glucuronide.
Text: (§1) The test determines the liberation of 4-methylumbelliferone from 4-methylumbelliferyl β-glucuronide by the β-glucuronidase portion of the fusion protein after the fusion protein has been bound via the sFv portion to an antigen. The measured fluorescence values are reported as relative fluorescence units (FU).

For test [2], the target named is T2, carcinoembryonic antigen (CEA) (UniProt P06731 35-685, limits assumed).
T2 construct: Tumor-associated antigen coated on microtiter plates in the specificity enzyme activity test
T2 sequence (looked up): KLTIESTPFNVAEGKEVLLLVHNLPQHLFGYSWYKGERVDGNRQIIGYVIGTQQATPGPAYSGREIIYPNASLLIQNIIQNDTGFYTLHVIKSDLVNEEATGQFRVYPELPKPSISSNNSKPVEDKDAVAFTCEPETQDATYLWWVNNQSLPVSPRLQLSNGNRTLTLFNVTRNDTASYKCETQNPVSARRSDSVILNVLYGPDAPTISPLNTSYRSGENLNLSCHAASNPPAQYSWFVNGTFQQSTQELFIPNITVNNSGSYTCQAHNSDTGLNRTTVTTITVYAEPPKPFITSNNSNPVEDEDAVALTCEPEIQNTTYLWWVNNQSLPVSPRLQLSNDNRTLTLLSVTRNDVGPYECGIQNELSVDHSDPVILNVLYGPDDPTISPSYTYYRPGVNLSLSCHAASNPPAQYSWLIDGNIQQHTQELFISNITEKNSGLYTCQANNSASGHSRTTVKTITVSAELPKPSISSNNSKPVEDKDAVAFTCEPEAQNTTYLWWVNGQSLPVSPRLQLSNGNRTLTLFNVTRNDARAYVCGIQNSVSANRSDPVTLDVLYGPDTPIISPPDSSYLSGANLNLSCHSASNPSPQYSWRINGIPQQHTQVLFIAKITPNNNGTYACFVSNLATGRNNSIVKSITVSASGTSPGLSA
Nature of the test: specificity enzyme activity test (refers to Example 5).
Text: as §1

T1 sequence (P15941 24-1097 limits assumed): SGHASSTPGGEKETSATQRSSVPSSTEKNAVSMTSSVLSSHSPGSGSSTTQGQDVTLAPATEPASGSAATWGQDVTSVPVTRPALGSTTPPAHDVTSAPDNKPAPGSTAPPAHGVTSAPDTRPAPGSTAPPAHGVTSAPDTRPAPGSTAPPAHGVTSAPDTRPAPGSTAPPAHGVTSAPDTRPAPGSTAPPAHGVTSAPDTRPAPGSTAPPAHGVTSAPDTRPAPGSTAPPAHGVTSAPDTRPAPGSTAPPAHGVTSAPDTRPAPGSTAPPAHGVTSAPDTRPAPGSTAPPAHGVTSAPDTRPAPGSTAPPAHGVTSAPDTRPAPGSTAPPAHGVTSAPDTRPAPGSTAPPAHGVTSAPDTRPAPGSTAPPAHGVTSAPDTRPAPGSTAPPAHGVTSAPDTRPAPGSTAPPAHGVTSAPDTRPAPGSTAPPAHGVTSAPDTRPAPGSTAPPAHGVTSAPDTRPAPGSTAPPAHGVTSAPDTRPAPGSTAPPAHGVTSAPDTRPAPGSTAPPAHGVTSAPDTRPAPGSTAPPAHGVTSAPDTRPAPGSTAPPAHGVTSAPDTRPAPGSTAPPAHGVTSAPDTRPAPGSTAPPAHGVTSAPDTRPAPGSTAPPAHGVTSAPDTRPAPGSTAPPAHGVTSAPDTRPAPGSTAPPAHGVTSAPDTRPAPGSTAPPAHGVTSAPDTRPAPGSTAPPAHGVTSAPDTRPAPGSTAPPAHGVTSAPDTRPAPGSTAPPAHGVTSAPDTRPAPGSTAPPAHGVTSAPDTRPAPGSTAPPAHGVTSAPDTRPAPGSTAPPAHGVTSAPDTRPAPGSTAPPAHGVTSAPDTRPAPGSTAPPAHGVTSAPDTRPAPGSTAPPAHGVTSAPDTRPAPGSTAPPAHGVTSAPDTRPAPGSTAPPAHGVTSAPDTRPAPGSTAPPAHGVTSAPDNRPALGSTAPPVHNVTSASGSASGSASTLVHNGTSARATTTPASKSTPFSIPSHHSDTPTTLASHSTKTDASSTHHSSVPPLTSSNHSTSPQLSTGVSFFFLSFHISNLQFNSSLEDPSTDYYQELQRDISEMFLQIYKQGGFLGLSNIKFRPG

B1: sFv-huβ-Gluc fusion protein (humanized sFv 431/26 against CEA linked via a hinge to human β-glucuronidase, expressed in BHK cells) (other)
chain: QVQLQESGPGLVRPSQTLSLTCTVSGFTISSGYSWHWVRQPPGRGLEWIGYIQYSGITNYNPSLKSRVTMLVDTSKNQFSLRLSSVTAADTAVYYCAREDYDYHWYFDVWGQGTTVTVSSGGGGSGGGGSGGGGSDIQLTQSPSSLSASVGDRVTITCSTSSSVSYMHWYQQKPGKAPKLLIYSTSNLASGVPSRFSGSGSGTDFTFTISSLQPEDIATYYCHQWSSYPTFGQGTKLEIKELKTPLGDTTHTCPRCPAAAAVQGGMLYPQESPSRECKELDGLWSFRADFSDNRRRGFEEQWYRRPLWESGPTVDMPVPSSFNDISQDWRLRHFVGWVWYEREVILPERWTQDLRTRVVLRIGSAHSYAIVWVNGVDTLEHEGGYLPFEADISNLVQVGPLPSRLRITIAINNTLTPTTLPPGTIQYLTDTSKYPKGYFVQNTYFDFFNYAGLQRSVLLYTTPTTYIDDITVTTSVEQDSGLVNYQISVKGSNLFKLEVRLLDAENKVVANGTGTQGQLKVPGVSLWWPYLMHERPAYLYSLEVQLTAQTSLGPVSDFYTLPVGIRTVAVTKSQFLINGKPFYFHGVNKHEDADIRGKGFDWPLLVKDFNLLRWLGANAFRTSHYPYAEEVMQMCDRYGIVVIDECPGVGLALPQFFNNVSLHHHMQVMEEVVRRDKNHPAVVMWSVANEPASHLESAGYYLKMVIAHTKSLDPSRPVTFVSNSNYAADKGAPYVDVICLNSYYSWYHDYGHLELIQLQLATQFENWYKKYQKPIIQSEYGAETIAGFHQDPPLMFTEEYQKSLLEQYHLGLDQKRRKYVVGELIWNFADFMTEQSPTRVLGNKKGIFTRQRQPKSAAFLLRERYWKIANETRYPHSVAKSQCLENSPFT
modifications: glycosylated (galactose, mannose and other carbohydrates, Table 2)
notes: scFv-enzyme fusion
With B1, the binding result in test [1] is given as “no binding”; in test [2] it was “binds”.

Source of the values: US7060495 (AVENTIS PHARMA DEUTSCHLAND, dated 2006).
